The chains are these.
B1: OR4K15 (parent)
chain: GUUAACGGUCAUAGGCCAUGGAAACUAGGAGCACCAUUUCGCUGCCAGUGAAGAAAUGAACAAAGAAAAUCUGGGCCAGGCAGGCAUCAAAAGAAAUAGUCUUGCGCUCAACCAGAAAGUCUGUAAUCAUUUUAAGGGUA

Variants of B1 are the subject of this data set. In words: self-cleavage, relative activity (ratio to wild type); higher = more cleavage; in vitro, sequencing; the parent is a self-cleaving ribozyme.
For A56G G106U, the self-cleavage is 0.01.

Regarding A82G U122A, the self-cleavage came to 0.11.

With A52G A111G, the self-cleavage was found to be 0.03.

Consider U2C G104C, for which the self-cleavage amounted to 0.1.

On to A5G U132A, for which the self-cleavage was determined as 0.6.

A24G A126G: the self-cleavage amounted to 0.83.

On to U39G A89G, for which the self-cleavage was determined as 1.18.

For the variant A91G A135U, the self-cleavage was found to be 1.25.

U57A A86G: the self-cleavage amounted to 1.09.

Take A55U U57G: the self-cleavage amounted to 1.54.

In the case of G8A U133G, the self-cleavage came out at 2.78.

For C77U A117G, the self-cleavage stood at 2.83.

In the case of A47U U103G, the self-cleavage was 0.03.

With C16G U127A, the self-cleavage was determined as 2.18.

For the variant A52G U100G, the self-cleavage is 1.16.

As to G48A A59U, the self-cleavage is 0.86.

Regarding A78U U139C, the self-cleavage was found to be 0.28.

For the variant U97C A140U, the self-cleavage amounted to 1.02.

In the case of A96U G99A, the self-cleavage was determined as 0.44.

For the variant A89U A129C, the self-cleavage came to 0.68.

On to A66G A126G, for which the self-cleavage is 1.07.

On to U103C A129G, for which the self-cleavage stood at 0.56.

In the case of A36G G119C, the self-cleavage amounted to 1.4.

As to A23U A86G, the self-cleavage came out at 0.48.

On to U9C U103C, for which the self-cleavage was 1.13.

Consider A30G A78U, for which the self-cleavage is 0.41.

Take A67G A110U: the self-cleavage turned out to be 1.46.

As for A86U U108C, the self-cleavage is 0.02.

With G41U U130C, the self-cleavage was determined as 1.59.

U108A C121U: the self-cleavage was determined as 0.

As for A51U A66G, the self-cleavage was determined as 2.03.

As to A24U U132C, the self-cleavage worked out at 2.18.

Take A4G U39C: the self-cleavage is 1.46.

On to A4G U39G, for which the self-cleavage was determined as 1.88.

In the case of C35U A91G, the self-cleavage worked out at 1.19.

Consider A95G C107U, for which the self-cleavage was found to be 0.01.

For the variant A82G A86U, the self-cleavage worked out at 0.88.

For the variant A94U A117U, the self-cleavage amounted to 0.82.

In the case of U49A A62U, the self-cleavage is 1.92.

Regarding C77U A98G, the self-cleavage turned out to be 0.88.

In the case of U49G A92G, the self-cleavage came out at 0.7.

On to A117G G138C, for which the self-cleavage came out at 2.13.

G20A: the self-cleavage is 1.55.

As for A24G A111G, the self-cleavage amounted to 0.03.

Take G7A C40U: the self-cleavage was found to be 1.81.

As to G21A A90G, the self-cleavage was 0.38.

U108C G137A: the self-cleavage is 0.01.

In the case of U49A U57C, the self-cleavage came to 1.11.

Turning to U49C U87A, the self-cleavage is 2.09.

On to A95G A114C, for which the self-cleavage came out at 0.06.

On to A66C, for which the self-cleavage is 1.02.

For the variant A82G A116G, the self-cleavage is 0.26.

A67U U72A: the self-cleavage was determined as 0.2.

With A23U U97G, the self-cleavage was found to be 1.35.

As to A59U C61U, the self-cleavage came to 1.53.

Regarding A52C A67U, the self-cleavage worked out at 1.67.

Consider U103C A116G, for which the self-cleavage came to 0.5.

In the case of U3C A98U, the self-cleavage came out at 2.88.

For the variant U12A U38G, the self-cleavage worked out at 1.9.

In the case of A51C A52G, the self-cleavage amounted to 1.83.

For U26C A30C, the self-cleavage was 0.98.

With C10U A64G, the self-cleavage turned out to be 1.25.

Take U2G A78U: the self-cleavage turned out to be 0.4.

With C42G, the self-cleavage is 1.62.

In the case of A47G A52G, the self-cleavage turned out to be 0.87.

A47U G99A: the self-cleavage is 0.23.

Consider A125U A140G, for which the self-cleavage is 1.42.

C61U A98U: the self-cleavage is 2.63.

As to U2C U103A, the self-cleavage stood at 0.62.

For A59G A94G, the self-cleavage was determined as 0.79.

With U87C A95G, the self-cleavage is 1.35.

On to C105G G136U, for which the self-cleavage amounted to 0.02.

In the case of C42U A126G, the self-cleavage was found to be 0.91.

In the case of U49C C105A, the self-cleavage is 0.03.

For the variant U72A A110C, the self-cleavage turned out to be 0.06.

Consider A23U A135G, for which the self-cleavage was 1.35.

As for A67G A69C, the self-cleavage turned out to be 1.68.

A11G A94U: the self-cleavage was 1.2.

Turning to U70C A118G, the self-cleavage is 0.35.

As for U43C U103G, the self-cleavage stood at 0.01.

G48U A56G: the self-cleavage worked out at 1.4.

With A33U C77A, the self-cleavage came out at 1.

As for A86G G104A, the self-cleavage is 0.02.

With A22G G31A, the self-cleavage was determined as 1.19.

Take A78G U97G: the self-cleavage was found to be 0.27.

With A98G A135C, the self-cleavage turned out to be 0.44.

In the case of G58U U124C, the self-cleavage amounted to 0.25.

Take G106A A110G: the self-cleavage came out at 0.01.

For A52G U122C, the self-cleavage stood at 1.45.

Consider C6U A13G, for which the self-cleavage turned out to be 1.29.

Consider G28U U100A, for which the self-cleavage was found to be 0.25.

With C25G A27U, the self-cleavage is 1.45.

On to A33G G58A, for which the self-cleavage amounted to 0.55.

With C6U G79U, the self-cleavage is 0.11.

Regarding U37C C107U, the self-cleavage is 0.02.

With U12A A60G, the self-cleavage is 1.36.

In the case of A30U A47U, the self-cleavage came out at 0.19.

As for U43C C107U, the self-cleavage came out at 0.02.

Consider A27C A69G, for which the self-cleavage is 1.34.

As to A63G A68G, the self-cleavage came to 1.41.

For the variant U120A A126G, the self-cleavage was found to be 1.64.

On to U122C G138U, for which the self-cleavage was 1.37.

Turning to A60G U122C, the self-cleavage was 0.84.

For the variant A24G A55G, the self-cleavage amounted to 0.67.

On to A52U A62G, for which the self-cleavage is 1.23.

C32A: the self-cleavage is 1.2.

With A33G U103C, the self-cleavage was found to be 0.4.

For G65A A117U, the self-cleavage was 0.6.

For the variant A5G U70C, the self-cleavage is 0.82.

With A33G U133C, the self-cleavage worked out at 0.88.

As for G29A U87A, the self-cleavage is 1.79.

As to A23G A96U, the self-cleavage is 1.17.

Consider U38A A78G, for which the self-cleavage is 0.26.

Take A36C U87A: the self-cleavage was determined as 2.59.

As for A36U A126G, the self-cleavage amounted to 0.99.

As to A59U A125G, the self-cleavage stood at 0.43.

A59G A60G: the self-cleavage was found to be 0.59.

Consider A96U U127A, for which the self-cleavage came out at 2.6.

Consider A78U A111G, for which the self-cleavage worked out at 0.02.

Turning to U43C U102A, the self-cleavage was found to be 1.

With A69G C107U, the self-cleavage came to 0.03.

A64G A140G: the self-cleavage came out at 1.47.

A89G U139C: the self-cleavage was determined as 1.02.

As to U9C U120G, the self-cleavage was determined as 1.39.

A62U G75A: the self-cleavage turned out to be 0.06.

For the variant A67U A69G, the self-cleavage is 1.13.

For G75A U122A, the self-cleavage came out at 0.17.

Consider A68U A91G, for which the self-cleavage was 1.35.

For A94G A117U, the self-cleavage stood at 0.67.

Take U87G U103C: the self-cleavage was determined as 0.22.

Take A52G U132A: the self-cleavage came to 0.88.

Turning to A134U U139A, the self-cleavage turned out to be 1.59.

For the variant G75A G138A, the self-cleavage turned out to be 0.13.

With A64G A96G, the self-cleavage was 1.92.

Regarding U108C U132C, the self-cleavage came to 0.01.

As to U19C U97C, the self-cleavage turned out to be 1.5.

On to U102C A117U, for which the self-cleavage was 0.83.

As to C109U U130C, the self-cleavage is 0.35.

For U39C A82G, the self-cleavage is 0.67.

As to A23G G48U, the self-cleavage was 0.73.

Take G48A A92G: the self-cleavage worked out at 2.02.

With A64C U131C, the self-cleavage is 1.9.

Regarding G31A A78U, the self-cleavage is 0.43.

Take C42G A51G: the self-cleavage is 1.47.

A52G G104A: the self-cleavage is 0.04.

As for A23G A91G, the self-cleavage worked out at 0.7.

As to A96G A117G, the self-cleavage came out at 2.13.

For the variant U39A A117G, the self-cleavage is 2.24.

As to U37C A91U, the self-cleavage was 2.

In the case of C10A A47U, the self-cleavage turned out to be 1.

On to C16U U97C, for which the self-cleavage stood at 1.23.

As to A89G A98U, the self-cleavage was 2.15.

On to A22U A68G, for which the self-cleavage was determined as 0.93.

On to A64U U72A, for which the self-cleavage stood at 0.05.

As for U127G, the self-cleavage came out at 1.32.

Turning to G7C A47U, the self-cleavage stood at 1.4.

In the case of U72A A86U, the self-cleavage amounted to 0.32.

Turning to A36U U38C, the self-cleavage turned out to be 1.51.

As for A24C A96G, the self-cleavage is 1.72.

Take U43G A125G: the self-cleavage was found to be 1.11.

Regarding A62C A111G, the self-cleavage was 0.03.

Regarding G44A U131C, the self-cleavage was found to be 1.53.

As for G29A U124A, the self-cleavage came to 0.77.

In the case of A90U A117G, the self-cleavage is 1.99.

With A27U A64U, the self-cleavage stood at 2.21.

For the variant A129G A140U, the self-cleavage stood at 2.17.

Consider U43A U120G, for which the self-cleavage was determined as 1.16.

Values taken from the RNAGym collection of RNA variant scans (doi:10.7554/elife.90254).
